Tests used:
BsHfq (GST removed) = biological target: T1, BsHfq (GST removed) (Bacillus subtilis, UniProt O31796 1-73); experiment: EMSA
T1 sequence: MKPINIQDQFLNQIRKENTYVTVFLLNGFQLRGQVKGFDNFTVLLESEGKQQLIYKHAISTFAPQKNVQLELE

BsHfq-His [1] = biological target: T2, BsHfq-His (Bacillus subtilis, UniProt O31796 1-73); experiment: EMSA
T2 sequence: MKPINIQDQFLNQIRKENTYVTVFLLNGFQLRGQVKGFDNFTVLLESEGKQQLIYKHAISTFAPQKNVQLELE

SEC + other: SDS-PAGE = biological target: the molecule itself; experiment: SEC + other: SDS-PAGE
BsHfq-His [2] = biological target: T2, BsHfq-His; experiment: UV cross-linking
BsHfq-His N40A = biological target: T3, BsHfq-His N40A (Bacillus subtilis, UniProt O31796 1-73, N40A); experiment: EMSA
T3 sequence: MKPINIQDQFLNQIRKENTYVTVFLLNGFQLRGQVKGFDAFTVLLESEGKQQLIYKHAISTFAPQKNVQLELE

BsHfq-His F41A = biological target: T4, BsHfq-His F41A (Bacillus subtilis, UniProt O31796 1-73, F41A); experiment: EMSA
T4 sequence: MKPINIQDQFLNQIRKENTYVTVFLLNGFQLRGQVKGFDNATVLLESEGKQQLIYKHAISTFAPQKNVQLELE

BsHfq-His R32A = biological target: T5, BsHfq-His R32A (Bacillus subtilis, UniProt O31796 1-73, R32A); experiment: EMSA
T5 sequence: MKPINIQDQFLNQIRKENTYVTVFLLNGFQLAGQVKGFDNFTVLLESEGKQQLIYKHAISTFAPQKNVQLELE

BsHfq-His F24A = biological target: T6, BsHfq-His F24A (Bacillus subtilis, UniProt O31796 1-73, F24A); experiment: EMSA
T6 sequence: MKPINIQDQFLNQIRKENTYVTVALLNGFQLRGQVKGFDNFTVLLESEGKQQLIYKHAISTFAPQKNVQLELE

BsHfq-His F29A = biological target: T7, BsHfq-His F29A (Bacillus subtilis, UniProt O31796 1-73, F29A); experiment: EMSA
T7 sequence: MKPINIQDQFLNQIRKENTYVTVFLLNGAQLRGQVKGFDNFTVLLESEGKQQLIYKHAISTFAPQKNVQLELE

BsHfq-His Q30A = biological target: T8, BsHfq-His Q30A (Bacillus subtilis, UniProt O31796 1-73, Q30A); experiment: EMSA
T8 sequence: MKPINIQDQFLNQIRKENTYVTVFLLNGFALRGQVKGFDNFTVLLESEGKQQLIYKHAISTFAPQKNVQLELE

BsHfq-His [3] = biological target: T2, BsHfq-His; experiment: UV cross-linking; remark: listed apart in the source

**Q.** Does AUUUUUG (ssRNA) [AU5G] bind (BsHfq (GST removed))?
**A.** no binding

B1: 28f (ssRNA)
RNA: GGGACACAAUGGACGAGGGAUUUGGGUGAUAUUUUUAGUCGGUCAUAACGGCCGACAUGAGAG
**Q.** Does B1 bind (BsHfq-His [1])?
**A.** no binding

B2: BsHfq-His H57A (natural protein, Bacillus subtilis)
chain: MKPINIQDQFLNQIRKENTYVTVFLLNGFQLRGQVKGFDNFTVLLESEGKQQLIYKAAISTFAPQKNVQLELE
**Q.** For B2, which “ability to form hexameric structure, percent of wild-type” value (SEC + other: SDS-PAGE) is on record?
**A.** ~30 % of wild-type

B3: BsHfq-His F24A (natural protein, Bacillus subtilis)
chain: MKPINIQDQFLNQIRKENTYVTVALLNGFQLRGQVKGFDNFTVLLESEGKQQLIYKHAISTFAPQKNVQLELE
**Q.** How did the “stoichiometry N” value (SEC + other: SDS-PAGE) turn out when B3 was run?
**A.** 6

B4: BsHfq-His Q30A (natural protein, Bacillus subtilis)
chain: MKPINIQDQFLNQIRKENTYVTVFLLNGFALRGQVKGFDNFTVLLESEGKQQLIYKHAISTFAPQKNVQLELE
**Q.** For B4, which “stoichiometry N” value (SEC + other: SDS-PAGE) is on record?
**A.** 6

B5: BsHfq-His K56A (natural protein, Bacillus subtilis)
chain: MKPINIQDQFLNQIRKENTYVTVFLLNGFQLRGQVKGFDNFTVLLESEGKQQLIYAHAISTFAPQKNVQLELE
**Q.** B5 was tested. Which “ability to form hexameric structure, percent of wild-type” value (SEC + other: SDS-PAGE) did it give?
**A.** ~60 % of wild-type

B6: BsHfq-His F41A (natural protein, Bacillus subtilis)
chain: MKPINIQDQFLNQIRKENTYVTVFLLNGFQLRGQVKGFDNATVLLESEGKQQLIYKHAISTFAPQKNVQLELE
**Q.** B6 was tested. Which “stoichiometry N” value (SEC + other: SDS-PAGE) did it give?
**A.** 6

B7: BsHfq-His N40A (natural protein, Bacillus subtilis)
chain: MKPINIQDQFLNQIRKENTYVTVFLLNGFQLRGQVKGFDAFTVLLESEGKQQLIYKHAISTFAPQKNVQLELE
**Q.** With B7 as the binder, how does the “stoichiometry N” value (SEC + other: SDS-PAGE) read?
**A.** 6

B8: BsHfq-His R32A (natural protein, Bacillus subtilis)
chain: MKPINIQDQFLNQIRKENTYVTVFLLNGFQLAGQVKGFDNFTVLLESEGKQQLIYKHAISTFAPQKNVQLELE
**Q.** With B8 as the binder, how does the “stoichiometry N” value (SEC + other: SDS-PAGE) read?
**A.** 6

B9: C-terminal 6x His fusion BsHfq, wild type (natural protein, Bacillus subtilis)
chain: MKPINIQDQFLNQIRKENTYVTVFLLNGFQLRGQVKGFDNFTVLLESEGKQQLIYKHAISTFAPQKNVQLELE
**Q.** For B9, which “stoichiometry N” value (SEC + other: SDS-PAGE) is on record?
**A.** 6

B10: BsHfq-His F29A (natural protein, Bacillus subtilis)
chain: MKPINIQDQFLNQIRKENTYVTVFLLNGAQLRGQVKGFDNFTVLLESEGKQQLIYKHAISTFAPQKNVQLELE
**Q.** Which “stoichiometry N” value (SEC + other: SDS-PAGE) does the source give for B10 here?
**A.** 6

**Q.** Does GGGCGAAUUCUAGAGAGAGAUUAGAUCCUGUCCGCGGCUAAAGCU (structured_RNA) [49R] bind (BsHfq-His [2])?
**A.** binds

**Q.** Does GGGCGAAUUCUAGAGAGAGAUUAGAUCCUGUCCGCGGCUAAAGCU (structured_RNA) [49R] bind (BsHfq-His N40A)?
**A.** binds

**Q.** Does GGGCGAAUUCUAGAGAGAGAUUAGAUCCUGUCCGCGGCUAAAGCU (structured_RNA) [49R] bind (BsHfq-His F41A)?
**A.** binds

**Q.** Does GGGCGAAUUCUAGAGAGAGAUUAGAUCCUGUCCGCGGCUAAAGCU (structured_RNA) [49R] bind (BsHfq-His R32A)?
**A.** no binding

**Q.** Does GGGCGAAUUCUAGAGAGAGAUUAGAUCCUGUCCGCGGCUAAAGCU (structured_RNA) [49R] bind (BsHfq-His F24A)?
**A.** no binding

**Q.** Does GGGCGAAUUCUAGAGAGAGAUUAGAUCCUGUCCGCGGCUAAAGCU (structured_RNA) [49R] bind (BsHfq-His F29A)?
**A.** no binding

**Q.** Does GGGCGAAUUCUAGAGAGAGAUUAGAUCCUGUCCGCGGCUAAAGCU (structured_RNA) [49R] bind (BsHfq-His Q30A)?
**A.** no binding

**Q.** Does GGGCGAAUUCUAGAGAAAGAUUAGAUCCUGUCCGCGGCUAAAGCU (ssRNA) [49R-A] bind (BsHfq-His [3])?
**A.** binds

Source: article PMC3287200 (Nucleic Acids Research, 2011)
